The source of these data is article PMC534114.

The assay concerns the target Gab1^F627/659 (Y627F/Y659F) (mouse) (UniProt Q9QYY0).
UniProt Q9QYY0, sequence (Q9QYY0 whole entry, stated change not applied): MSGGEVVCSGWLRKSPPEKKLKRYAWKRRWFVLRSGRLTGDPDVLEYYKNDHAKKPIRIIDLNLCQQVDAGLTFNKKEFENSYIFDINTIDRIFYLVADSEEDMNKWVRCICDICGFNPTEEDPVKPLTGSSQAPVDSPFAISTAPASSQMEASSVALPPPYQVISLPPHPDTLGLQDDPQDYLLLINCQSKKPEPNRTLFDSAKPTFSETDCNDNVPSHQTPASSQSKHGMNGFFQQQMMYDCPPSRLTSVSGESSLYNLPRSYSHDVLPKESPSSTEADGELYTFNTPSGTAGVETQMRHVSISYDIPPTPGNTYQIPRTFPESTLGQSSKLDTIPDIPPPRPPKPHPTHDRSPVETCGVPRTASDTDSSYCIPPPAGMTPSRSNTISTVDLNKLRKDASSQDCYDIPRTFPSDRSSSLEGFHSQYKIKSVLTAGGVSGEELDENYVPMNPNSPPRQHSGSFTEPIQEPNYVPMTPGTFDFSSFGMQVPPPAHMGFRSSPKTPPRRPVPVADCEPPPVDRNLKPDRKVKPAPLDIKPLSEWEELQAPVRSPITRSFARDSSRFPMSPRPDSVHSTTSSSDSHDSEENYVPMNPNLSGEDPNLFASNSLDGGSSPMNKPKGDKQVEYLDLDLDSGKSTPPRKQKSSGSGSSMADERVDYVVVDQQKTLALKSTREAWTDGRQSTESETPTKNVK

As to “p85, the regulatory subunit of PI-3 kinase (from UniProt P26450 1-724) (natural protein)”, the Gab1-associated PI-3 kinase activity in anti-Gab1 immunoprecipitates after EGF treatment (100 ng/ml, five minutes), relative to wild type Gab1 is 2 fold and the basal PI-3 kinase activity in anti-Gab1 immunoprecipitates (PIP3 production), relative to wild type Gab1 came out at 1.6 fold.
